Consider 11 molecules from patent publication US10800813 (Bicycle, dated 2020).

The chains are these.
B1: Ac-(06-34-18) FPAR (peptide)
peptide: Ac-CSFPARCLHQDLC-NH2
modifications: linker 1-7-13 via TBMB
SMILES: CC(=O)N[C@H]1CSCc2cc3cc(c2)CSC[C@H](NC(=O)[C@H](CCCNC(=N)N)NC(=O)[C@H](C)NC(=O)[C@@H]2CCCN2C(=O)[C@H](Cc2ccccc2)NC(=O)[C@H](CO)NC1=O)C(=O)N[C@@H](CC(C)C)C(=O)N[C@@H](Cc1c[nH]cn1)C(=O)N[C@@H](CCC(N)=O)C(=O)N[C@@H](CC(=O)O)C(=O)N[C@@H](CC(C)C)C(=O)N[C@H](C(N)=O)CSC3
B2: Ac-(06-34-18) β-Ala4 (peptide)
peptide: Ac-CSWP[βAla]RCLHQDLC-NH2
modifications: linker 1-7-13 via TBMB
SMILES: CC(=O)N[C@H]1CSCc2cc3cc(c2)CSC[C@H](NC(=O)[C@H](CCCNC(=N)N)NC(=O)CCNC(=O)[C@@H]2CCCN2C(=O)[C@H](Cc2c[nH]c4ccccc24)NC(=O)[C@H](CO)NC1=O)C(=O)N[C@@H](CC(C)C)C(=O)N[C@@H](Cc1c[nH]cn1)C(=O)N[C@@H](CCC(N)=O)C(=O)N[C@@H](CC(=O)O)C(=O)N[C@@H](CC(C)C)C(=O)N[C@H](C(N)=O)CSC3
B3: Ac-(06-34-18) Aib4 (peptide)
peptide: Ac-CSWP[Aib]RCLHQDLC-NH2
modifications: linker 1-7-13 via TBMB
SMILES: CC(=O)N[C@H]1CSCc2cc3cc(c2)CSC[C@H](NC(=O)[C@H](CCCNC(=N)N)NC(=O)C(C)(C)NC(=O)[C@@H]2CCCN2C(=O)[C@H](Cc2c[nH]c4ccccc24)NC(=O)[C@H](CO)NC1=O)C(=O)N[C@@H](CC(C)C)C(=O)N[C@@H](Cc1c[nH]cn1)C(=O)N[C@@H](CCC(N)=O)C(=O)N[C@@H](CC(=O)O)C(=O)N[C@@H](CC(C)C)C(=O)N[C@H](C(N)=O)CSC3
B4: Ac-(06-34-18) Aba4 (peptide)
peptide: Ac-CSWP[Abu]RCLHQDLC-NH2
modifications: linker 1-7-13 via TBMB
SMILES: CC[C@@H]1NC(=O)[C@@H]2CCCN2C(=O)[C@H](Cc2c[nH]c3ccccc23)NC(=O)[C@H](CO)NC(=O)[C@@H](NC(C)=O)CSCc2cc3cc(c2)CSC[C@H](NC(=O)[C@H](CCCNC(=N)N)NC1=O)C(=O)N[C@@H](CC(C)C)C(=O)N[C@@H](Cc1c[nH]cn1)C(=O)N[C@@H](CCC(N)=O)C(=O)N[C@@H](CC(=O)O)C(=O)N[C@@H](CC(C)C)C(=O)N[C@H](C(N)=O)CSC3
B5: Ac-(06-34-18) Dpg1 (peptide)
peptide: Ac-C[Dpg]WPARCLHQDLC-NH2
modifications: linker 1-7-13 via TBMB
SMILES: CCCC1(CCC)NC(=O)[C@@H](NC(C)=O)CSCc2cc3cc(c2)CSC[C@H](NC(=O)[C@H](CCCNC(=N)N)NC(=O)[C@H](C)NC(=O)[C@@H]2CCCN2C(=O)[C@H](Cc2c[nH]c4ccccc24)NC1=O)C(=O)N[C@@H](CC(C)C)C(=O)N[C@@H](Cc1c[nH]cn1)C(=O)N[C@@H](CCC(N)=O)C(=O)N[C@@H](CC(=O)O)C(=O)N[C@@H](CC(C)C)C(=O)N[C@H](C(N)=O)CSC3
B6: Ac-(06-34-18) Cys2ToPen2 (peptide)
peptide: Ac-CSWPAR[Pen]LHQDLC-NH2
modifications: linker 1-7-13 via TBMB
SMILES: CC(=O)N[C@H]1CSCc2cc3cc(c2)CSC(C)(C)[C@H](NC(=O)[C@H](CCCNC(=N)N)NC(=O)[C@H](C)NC(=O)[C@@H]2CCCN2C(=O)[C@H](Cc2c[nH]c4ccccc24)NC(=O)[C@H](CO)NC1=O)C(=O)N[C@@H](CC(C)C)C(=O)N[C@@H](Cc1c[nH]cn1)C(=O)N[C@@H](CCC(N)=O)C(=O)N[C@@H](CC(=O)O)C(=O)N[C@@H](CC(C)C)C(=O)N[C@H](C(N)=O)CSC3
B7: Ac-(06-34-18) Aze3 NMeArg5 (peptide)
peptide: Ac-CSW[Aze]A[NMeR]CLHQDLC-NH2
modifications: linker 1-7-13 via TBMB
SMILES: CC(=O)N[C@H]1CSCc2cc3cc(c2)CSC[C@H](NC(=O)[C@H](CCCNC(=N)N)N(C)C(=O)[C@H](C)NC(=O)[C@@H]2CCN2C(=O)[C@H](Cc2c[nH]c4ccccc24)NC(=O)[C@H](CO)NC1=O)C(=O)N[C@@H](CC(C)C)C(=O)N[C@@H](Cc1c[nH]cn1)C(=O)N[C@@H](CCC(N)=O)C(=O)N[C@@H](CC(=O)O)C(=O)N[C@@H](CC(C)C)C(=O)N[C@H](C(N)=O)CSC3
B8: Ac-(06-34-18) Aze3 4GuanPhe5 (peptide)
peptide: Ac-CSW[Aze]A[Phe(4-guanidino)]CLHQDLC-NH2
modifications: linker 1-7-13 via TBMB
SMILES: CC(=O)N[C@H]1CSCc2cc3cc(c2)CSC[C@H](NC(=O)[C@H](Cc2ccc(NC(=N)N)cc2)NC(=O)[C@H](C)NC(=O)[C@@H]2CCN2C(=O)[C@H](Cc2c[nH]c4ccccc24)NC(=O)[C@H](CO)NC1=O)C(=O)N[C@@H](CC(C)C)C(=O)N[C@@H](Cc1c[nH]cn1)C(=O)N[C@@H](CCC(N)=O)C(=O)N[C@@H](CC(=O)O)C(=O)N[C@@H](CC(C)C)C(=O)N[C@H](C(N)=O)CSC3
B9: Ac-(06-34-18) Aze3 HomoArg5 (peptide)
peptide: Ac-CSW[Aze]A[hArg]CLHQDLC-NH2
modifications: linker 1-7-13 via TBMB
SMILES: CC(=O)N[C@H]1CSCc2cc3cc(c2)CSC[C@H](NC(=O)[C@H](CCCCNC(=N)N)NC(=O)[C@H](C)NC(=O)[C@@H]2CCN2C(=O)[C@H](Cc2c[nH]c4ccccc24)NC(=O)[C@H](CO)NC1=O)C(=O)N[C@@H](CC(C)C)C(=O)N[C@@H](Cc1c[nH]cn1)C(=O)N[C@@H](CCC(N)=O)C(=O)N[C@@H](CC(=O)O)C(=O)N[C@@H](CC(C)C)C(=O)N[C@H](C(N)=O)CSC3
B10: Ac-(06-34-18) WPSR (peptide)
peptide: Ac-CSWPSRCLHQDLC-NH2
modifications: linker 1-7-13 via TBMB
SMILES: CC(=O)N[C@H]1CSCc2cc3cc(c2)CSC[C@H](NC(=O)[C@H](CCCNC(=N)N)NC(=O)[C@H](CO)NC(=O)[C@@H]2CCCN2C(=O)[C@H](Cc2c[nH]c4ccccc24)NC(=O)[C@H](CO)NC1=O)C(=O)N[C@@H](CC(C)C)C(=O)N[C@@H](Cc1c[nH]cn1)C(=O)N[C@@H](CCC(N)=O)C(=O)N[C@@H](CC(=O)O)C(=O)N[C@@H](CC(C)C)C(=O)N[C@H](C(N)=O)CSC3
B11: Ac-(06-34-18) WPYR (peptide)
peptide: Ac-CSWPYRCLHQDLC-NH2
modifications: linker 1-7-13 via TBMB
SMILES: CC(=O)N[C@H]1CSCc2cc3cc(c2)CSC[C@H](NC(=O)[C@H](CCCNC(=N)N)NC(=O)[C@H](Cc2ccc(O)cc2)NC(=O)[C@@H]2CCCN2C(=O)[C@H](Cc2c[nH]c4ccccc24)NC(=O)[C@H](CO)NC1=O)C(=O)N[C@@H](CC(C)C)C(=O)N[C@@H](Cc1c[nH]cn1)C(=O)N[C@@H](CCC(N)=O)C(=O)N[C@@H](CC(=O)O)C(=O)N[C@@H](CC(C)C)C(=O)N[C@H](C(N)=O)CSC3

Numbered stars: 1 amine (or outer) side, 2 acyl side, 3 side chain; on linkers, the order of the positions; unused ones are H or OH. Bridge positions count the residues as written; N and C are the ends. Square brackets hold non-standard residues; d marks the D form. Phe(4-guanidino) = N=C(N)Nc1ccc(C[C@H](N)C(=O)O)cc1; TBMB = c1c(C[*:1])cc(C[*:3])cc1C[*:2]; NMeR = CN[C@@H](CCCNC(=N)N)C(=O)O; hArg = N=C(N)NCCCC[C@H](N)C(=O)O; Pen = CC(C)(S)[C@H](N)C(=O)O; Dpg = CCCC(N)(CCC)C(=O)O; Aze = O=C(O)[C@@H]1CCN1; Abu = CC[C@H](N)C(=O)O; Aib = CC(C)(N)C(=O)O; βAla = NCCC(=O)O

For one assay, the target named is T1, human plasma Kallikrein (human, UniProt P03952 20-638, limits assumed).
T1 construct: also called hPK; human PK
T1 sequence (P03952 20-638 limits assumed): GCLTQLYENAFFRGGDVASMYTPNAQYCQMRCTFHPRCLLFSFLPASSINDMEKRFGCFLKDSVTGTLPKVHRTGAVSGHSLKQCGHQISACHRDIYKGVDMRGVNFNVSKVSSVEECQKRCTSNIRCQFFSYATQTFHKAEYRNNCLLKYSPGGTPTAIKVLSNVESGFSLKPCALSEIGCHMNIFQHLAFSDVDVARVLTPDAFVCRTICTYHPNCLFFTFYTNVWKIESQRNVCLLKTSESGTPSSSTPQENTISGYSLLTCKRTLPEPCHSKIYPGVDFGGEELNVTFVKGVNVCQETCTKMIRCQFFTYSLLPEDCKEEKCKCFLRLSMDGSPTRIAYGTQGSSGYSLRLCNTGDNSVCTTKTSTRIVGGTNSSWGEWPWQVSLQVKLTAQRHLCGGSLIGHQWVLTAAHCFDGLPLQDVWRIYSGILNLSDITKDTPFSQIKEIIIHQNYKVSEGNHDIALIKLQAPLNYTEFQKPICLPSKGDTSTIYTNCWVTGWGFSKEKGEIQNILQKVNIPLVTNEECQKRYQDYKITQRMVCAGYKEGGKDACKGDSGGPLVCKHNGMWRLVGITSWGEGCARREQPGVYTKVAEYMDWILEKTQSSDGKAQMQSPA
Put plainly: enzyme inhibition assay.
As to B1, the “fold change in Ki against WPAR parent” value is 40 fold.

The target of another assay is T1, human plasma Kallikrein. Put plainly: enzyme inhibition assay. This is another data set of the same source.
Turning to B2, the Ki came out at 17400 nM.

On to B3, for which the Ki stood at 289 nM.

As to B4, the Ki worked out at 0.07 nM.

Take B5: the affinity, expressed as Ki, was 1.09 nM.

On to B6, for which the affinity corresponds to a Ki of 2160 nM.

Another assay addresses T1, human plasma Kallikrein. The assay can be described thus: enzyme inhibition assay. This is another data set of the same source.
For B7, the affinity, expressed as Ki, was 1.3 nM.

The molecule B8 returned a Ki of 0.17 nM.

With B9, the affinity, expressed as Ki, was 0.14 nM.

The next assay concerns the target T1, human plasma Kallikrein. The assay can be described thus: enzyme inhibition assay. The source holds these as a separate data set.
The molecule B1 returned a Ki of 6.28 nM.

For the molecule B10, affinity was put at a Ki of 0.44 nM.

B11: the Ki was determined as 0.41 nM.

The Ki is the dissociation constant of the complex between target and ligand, obtained from inhibition or displacement. Low readings indicate a stronger hold on the target, high ones a looser hold on the target.
